Data on two molecules can be found in paper PMC11697113, “The Hsc70 system maintains the synaptic SNARE protein SNAP-25 in an assembly-competent state and delays its aggregation [image fx2.gif]” (The Journal of Biological Chemistry, 2024).

The target of the test is T1, heat shock cognate 70 (Hsc70), human constitutively expressed Hsp70, wild type (human, UniProt P11142 1-646).
T1 construct: Hsc70, the human constitutively expressed Hsp70; also called WT Hsc70; His-Hsc70 (before cleavage); source: E. coli Rosetta (DE3), purified (Ni-NTA, TEV cleavage, second Ni-NTA)
In words: NMR titration; methyl-TROSY (1H-13C HMQC) spectra of Ile δ1-13CH3-labeled Hsc70 (40 μM) without and with unlabeled peptide; 10 mM potassium phosphate pD 7.4, 5 mM DTT, D2O, 25 °C, 600 MHz. The note with it: both partners purified.

T1 sequence (P11142 whole entry): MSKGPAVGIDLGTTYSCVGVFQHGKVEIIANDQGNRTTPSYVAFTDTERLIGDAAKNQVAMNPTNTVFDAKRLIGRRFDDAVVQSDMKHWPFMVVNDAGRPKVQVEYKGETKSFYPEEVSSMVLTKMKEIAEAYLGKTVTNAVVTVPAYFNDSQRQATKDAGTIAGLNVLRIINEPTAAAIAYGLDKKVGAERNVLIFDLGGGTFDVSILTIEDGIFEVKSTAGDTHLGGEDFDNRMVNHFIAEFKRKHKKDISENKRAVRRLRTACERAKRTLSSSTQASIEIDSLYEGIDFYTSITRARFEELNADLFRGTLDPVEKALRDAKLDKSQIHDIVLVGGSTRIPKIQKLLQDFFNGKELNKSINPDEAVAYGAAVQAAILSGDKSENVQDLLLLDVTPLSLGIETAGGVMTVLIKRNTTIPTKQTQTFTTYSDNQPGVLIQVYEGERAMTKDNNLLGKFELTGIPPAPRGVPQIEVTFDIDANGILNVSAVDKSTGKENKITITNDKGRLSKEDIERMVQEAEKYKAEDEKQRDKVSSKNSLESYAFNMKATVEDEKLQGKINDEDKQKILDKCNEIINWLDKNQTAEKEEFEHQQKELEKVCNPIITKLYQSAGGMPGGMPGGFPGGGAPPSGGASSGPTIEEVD

B1: SNCP peptide of SNAP-25 (LOOP-SNC site) (peptide)
peptide: EREQMAISGGFIRR
notes: also called SNC peptide; LOOP-SNC peptide; source: synthetic peptide
For B1, the binding result is recorded as “binds”.

B2: SNNP peptide of SNAP-25 (peptide)
peptide: RRMLQLVEESK
notes: also called SNN peptide; source: synthetic peptide
As to B2, the binding result is recorded as “binds”.
